Source: patent publication US20120316071A1 (published 2012)
Substitutions are numbered along the chain they refer to. Names and notes keep the numbering of the source.

B1: Fab VH1-46_IGHD6-6*01_IGHJ1*01 & L6_IGKJ1*01 (Fab, V domains shown)
VH: QVQLVQSGAEVKKPGASVKVSCKASGYTFTSYYMHWVRQAPGQGLEWMGIINPSGGSTSYAQKFQGRVTMTRDTSTSTVYMELSSLRSEDTAVYYCAREEYSSSSAEYFQHWGQGTLVTVSS
VL: not shown
notes: Germline 'Hit' Fab; The VH was cloned into Plasmid A (CH1, His6 and Flag tags) and the kappa VL into Plasmid C (kappa CL); expressed in E. coli; also called Parent; parental
B2: Fab VH1-46_IGHD6-6*01_IGHJ1*01 S103P & L6_IGKJ1*01 (Fab, V domains shown)
VH: B1 VH with S103P
VL: not shown
notes: Fab; The VH was cloned into Plasmid A (CH1, His6 and Flag tags) and the kappa VL into Plasmid C (kappa CL); expressed in E. coli
B3: Fab VH1-46_IGHD6-6*01_IGHJ1*01 S102A & L6_IGKJ1*01 (Fab, V domains shown)
VH: B1 VH with S102A
VL: not shown
notes: as for B2
B4: Fab VH1-46_IGHD6-6*01_IGHJ1*01 S103A & L6_IGKJ1*01 (Fab, V domains shown)
VH: B1 VH with S103A
VL: not shown
notes: as for B2
B5: Fab VH1-46_IGHD6-6*01_IGHJ1*01 S102A/S103P/S104F/H111F S54A & L6_IGKJ1*01 (Fab, V domains shown)
VH: B1 VH with S54A, S102A, S103P, S104F, H111F
VL: not shown
notes: Fab made in E. coli; CH1 with tags and kappa CL are not included; also called APFF S54A; H:APFF S54A
B6: Fab VH1-46_IGHD6-6*01_IGHJ1*01 & L6_IGKJ1*01 (Fab, V domains shown)
VH: B1 VH
VL: not shown
notes: Tested as a Fab made in E. coli; VH was cloned into Plasmid A (CH1 constant region, His6 and Flag tags) and the kappa VL into Plasmid C (kappa CL); also called parent "Hit" Fab; parental
B7: Fab VH1-46_IGHD6-6*01_IGHJ1*01 H111A & L6_IGKJ1*01 (Fab, V domains shown)
VH: B1 VH with H111A
VL: not shown
notes: Heavy chain CDR3 alanine mutant of the parent Fab; Fab format with CH1, kappa CL, His6 and Flag tags from the expression plasmids
B8: Fab VH1-46_IGHD6-6*01_IGHJ1*01 S104A & L6_IGKJ1*01 (Fab, V domains shown)
VH: B1 VH with S104A
VL: not shown
notes: as for B7
B9: Fab VH1-46_IGHD6-6*01_IGHJ1*01 E100A & L6_IGKJ1*01 (Fab, V domains shown)
VH: B1 VH with E100A
VL: not shown
notes: as for B7
B10: Fab VH1-46_IGHD6-6*01_IGHJ1*01 S102A & L6_IGKJ1*01 (Fab, V domains shown)
VH: B1 VH with S102A
VL: not shown
notes: as for B7
B11: Fab VH1-46_IGHD6-6*01_IGHJ1*01 S105A & L6_IGKJ1*01 (Fab, V domains shown)
VH: B1 VH with S105A
VL: not shown
notes: as for B7
B12: Fab VH1-46_IGHD6-6*01_IGHJ1*01 S103A & L6_IGKJ1*01 (Fab, V domains shown)
VH: B1 VH with S103A
VL: not shown
notes: as for B7
B13: Fab VH1-46_IGHD6-6*01_IGHJ1*01 S102A/S103P/S104F/H111F G56A & L6_IGKJ1*01 (Fab, V domains shown)
VH: B1 VH with G56A, S102A, S103P, S104F, H111F
VL: not shown
notes: Fab made in E. coli: CH1 with His6/Flag tags from Plasmid A, kappa constant region from Plasmid C; also called APFF G56A
B14: Fab VH1-46_IGHD6-6*01_IGHJ1*01 S102A/S103P/S104F/H111F I51A & L6_IGKJ1*01 (Fab, V domains shown)
VH: B1 VH with I51A, S102A, S103P, S104F, H111F
VL: not shown
notes: Fab made in E. coli: CH1 with His6/Flag tags from Plasmid A, kappa constant region from Plasmid C; also called APFF I51A
B15: Fab VH1-46_IGHD6-6*01_IGHJ1*01 S102A/S103P/S104F/H111F I50A & L6_IGKJ1*01 (Fab, V domains shown)
VH: B1 VH with I50A, S102A, S103P, S104F, H111F
VL: not shown
notes: Fab made in E. coli: CH1 with His6/Flag tags from Plasmid A, kappa constant region from Plasmid C; also called APFF I50A
B16: Fab VH1-46_IGHD6-6*01_IGHJ1*01 S102A/S103P/S104F/H111F G55A & L6_IGKJ1*01 (Fab, V domains shown)
VH: B1 VH with G55A, S102A, S103P, S104F, H111F
VL: not shown
notes: Fab made in E. coli: CH1 with His6/Flag tags from Plasmid A, kappa constant region from Plasmid C; also called APFF G55A
B17: Fab VH1-46_IGHD6-6*01_IGHJ1*01 S102A/S103P/S104F/H111F/I51G/N52L/S54T/G56H (APFF GLTH) & L6_IGKJ1*01 (Fab, V domains shown)
VH: B1 VH with I51G, N52L, S54T, G56H, S102A, S103P, S104F, H111F
VL: not shown
notes: Fab made in E. coli; CH1 with tags and kappa CL are not included
B18: Fab VH1-46_IGHD6-6*01_IGHJ1*01 S102A/S103P/S104F/H111F/I51V/N52L/S54T/G56H (APFF VLTH) & L6_IGKJ1*01 (Fab, V domains shown)
VH: B1 VH with I51V, N52L, S54T, G56H, S102A, S103P, S104F, H111F
VL: not shown
notes: as for B17
B19: Fab VH1-46_IGHD6-6*01_IGHJ1*01 S102A/S103P/S104F/H111F/I51T/N52L/S54T/G56H (APFF TLTH) & L6_IGKJ1*01 (Fab, V domains shown)
VH: B1 VH with I51T, N52L, S54T, G56H, S102A, S103P, S104F, H111F
VL: not shown
notes: as for B17
B20: Fab VH1-46_IGHD6-6*01_IGHJ1*01 S102A/S103P/S104F/H111F/I51E/N52L/S54T/G56H (APFF ELTH) & L6_IGKJ1*01 (Fab, V domains shown)
VH: B1 VH with I51E, N52L, S54T, G56H, S102A, S103P, S104F, H111F
VL: not shown
notes: as for B17

target: T1, Recombinant Human DLL4 (delta-like protein 4) (human, UniProt Q9NR61 27-529); assay: ECL (MSD) multispot assay; Fab 0.1 µM
T1 construct: Bought recombinant protein (R&D Systems Cat#1506-D4/CF); also called rHuman DLL4; Delta-like 4

ECL signal | Signal/Noise | Binder
7000 | 40.9 | B1
19300 | 139 | B2
15800 | 71.6 | B3
7110 | 31.6 | B4

target: T2, Recombinant Human DLL4 (delta-like protein 4) (human, UniProt Q9NR61 27-529); assay: ELISA on coated DLL4, 100 nM Fab
T2 construct: Bought recombinant human DLL4 (R&D Systems Cat#1506-D4/CF), coated on the plate; also called rHuman DLL4; Delta-like 4

ELISA signal | Binder
0.02 | B5

target: T1, Recombinant Human DLL4 (delta-like …); assay: ECL (MSD) multispot assay; Fab 0.01 µM

ECL signal | Signal/Noise | Binder
1030 | 4.9 | B1
4100 | 22.9 | B2
2600 | 10 | B3
1190 | 4.5 | B4

target: T3, Recombinant Human DLL4 (human, UniProt Q9NR61 27-524); assay: ECL (MSD) 96-well plate assay; plate coated with 15 ug/mL DLL4; 0.004 uM Fab
T3 construct: Bought recombinant protein (R&D Systems Cat#1506-D4/CF); also called delta-like protein 4; Delta-like 4

ECL signal | Signal/Noise | Binder
4260 | 29.2 | B6
5020 | 34.4 | B7
3610 | 24.8 | B8
536 | 3.7 | B9
10300 | 70.8 | B10
181 | 1.2 | B11
5150 | 35.3 | B12

target: T4, Recombinant Human DLL4 (delta-like protein 4) (human, UniProt Q9NR61 27-524); assay: ELISA on plate-coated DLL4, 100 nM Fab, signal minus noise
T4 construct: Bought recombinant protein (R&D Systems Cat#1506-D4/CF); also called rHuman DLL4; Delta-like 4

ELISA (Signal-Noise) | Binder
1.6 | B13
0.49 | B14
0.01 | B15
0.02 | B16

target: T2, Recombinant Human DLL4 (delta-like …); assay: ELISA on coated DLL4, 100 nM Fab; remark: another data set of the same source

ELISA signal | Binder
0.407 | B17
1.1 | B18
0.641 | B19
0.995 | B20

target: T2, Recombinant Human DLL4 (delta-like …); assay: 96-well plate ECL (MSD) binding assay on coated DLL4, 10 nM Fab

ECL signal | Binder
131000 | B17
192000 | B18
123000 | B19
167000 | B20

target: T3, Recombinant Human DLL4; assay: ECL (MSD) 96-well plate assay; plate coated with 30 ug/mL DLL4; 0.02 uM Fab

ECL signal | Signal/Noise | Binder
8710 | 23 | B6
11600 | 30.6 | B7
163000 | 431 | B8
1300 | 3.4 | B9
19100 | 50.3 | B10
1100 | 2.9 | B11
11600 | 30.5 | B12

target: T4, Recombinant Human DLL4 (delta-like …); assay: ECL (MSD) multispot binding assay, DLL4 immobilised, 10 nM Fab, DLL4 signal over blank

Signal/Noise [10 nM Fab] | Binder
442 | B13
637 | B14
9.8 | B15
44.2 | B16
